Data from US20250114467A1 (SHANGHAI FUDAN ZHANGJIANG BIO PHARMACEUTICAL, published 2025).
Blank lines part the entries; values can stand above or below the binder they belong to.

Target: T1, human DLL4 (purchased from Acro, DL4-H5227) (human, UniProt Q9NR61 27-524)
T1 construct: Bought; also called hDLL4
Assay: ELISA, plate-coated protein 1 µg/ml
Method: The chimeric antibodies obtained in Example 6 were evaluated for their binding abilities to human DLL1 (purchased from Acro, DL1-H52H8) and DLL4 (purchased from Acro, DL4-H5227) proteins using the ELISA method. The ELISA detection method involved diluting DLL1 and DLL4 proteins with PBS to a final concentration of 1 μg/ml and coating them onto 384-well ELISA plates (purchased from Corning, 3700) at 4° C. overnight. The next day, the supernatant in the plate wells was discarded, and the wells were blocked with 80 μl of 3% milk (dissolved in PBS) for 2 hours, followed by washing three times with 80 μl of PBST (0.1% Tween20). […] After washing with 80 μl of PBST (0.1% Tween20) for five times, 25 μl of HRP-labeled goat anti-human secondary antibody (Jackson, 1:10000) was added to each well and incubated at room temperature for 1 hour, discard the supernatant, and the wells were then washed seven times with 80 μl of PBST (0.1% Tween20). After adding 25 μl of TMB chromogen solution for 10 minutes, the reaction was terminated with 2M HCl, and the absorbance value at 450 nm was measured with a Microplate reader (purchased from Biotek, Elx808). […] To assess the cross-reactivity of the antibodies with mouse and monkey DLL3, mouse DLL3-expressing plasmid pCMV3-mDLL3 (purchased from Beijing Yiqiao, MG58052-UT) and monkey DLL3-expressing plasmid pCMV3-rheDLL3 (purchased from Beijing Yiqiao, CG90919-UT) were used to construct overexpressing cell lines. The construction of overexpressing cells was as described in Examples 2-3. The binding abilities of the chimeric antibodies to these cells were determined by flow cytometry to assess the cross-reactivity of the antibodies with different species.

T1 sequence (Q9NR61 27-524 limits assumed): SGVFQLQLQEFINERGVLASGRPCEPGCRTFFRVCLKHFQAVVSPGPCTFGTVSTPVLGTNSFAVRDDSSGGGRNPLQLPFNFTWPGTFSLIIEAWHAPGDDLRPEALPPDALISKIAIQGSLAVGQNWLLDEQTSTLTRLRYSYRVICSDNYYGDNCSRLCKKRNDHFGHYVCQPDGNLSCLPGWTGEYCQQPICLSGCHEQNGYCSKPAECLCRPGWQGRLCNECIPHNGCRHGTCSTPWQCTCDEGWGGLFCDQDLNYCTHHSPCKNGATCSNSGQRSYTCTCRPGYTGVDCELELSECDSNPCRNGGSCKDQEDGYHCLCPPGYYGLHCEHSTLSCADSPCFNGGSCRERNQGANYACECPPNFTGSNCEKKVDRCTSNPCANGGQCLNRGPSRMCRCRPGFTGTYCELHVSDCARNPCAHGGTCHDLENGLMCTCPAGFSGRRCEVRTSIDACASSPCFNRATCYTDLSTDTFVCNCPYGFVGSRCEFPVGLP

- binding result: no binding (tested: up to 20 µg/ml)
B1: ch23G2 (antibody, human IgG1, kappa, V domains shown)
VH: QVQLQQSGPELVRPGVSVKISCKGSGYTFTDYAIHWVKQSRAKSPEWIGIVSTDSGKTSFNQKFKGKATMTVDKSSTTAYMELVRLTSEDSAIYYCARNPYYDYDGYAMDYWGQGTSVTVSS
VL: DIQMTQSSSYLSVSLGGRVTIICKASDHINNWLAWYQQKPGNAPRLIISGATSLETGVPSRFSGSGSGKDYTLSITSLQTEDVATYYCQQYWSIPYTFGGGTKLEIKR
notes: Chimeric: murine variable regions on human IgG1 heavy and kappa light constant regions; also called chimeric antibody 23G2

- binding result: no binding (tested: up to 20 µg/ml)
B2: ch10B1 (antibody, human IgG1, kappa, V domains shown)
VH: DVKLVESGGGLVKPGGSLKLSCAASGFTFSNYTISWVRQTPEKRLEWVATFSSGGSYTYYSDSVKGRFTISRDNAKNTLYLQMSSLKSEDTAMYYCSRDRRSDGYYHLYAMDYWGQGTSVTVSS
VL: DIQMTQTTSSLSASLGDRVTISCRASQDISHYLNWYQQKPDGTVKLLIYYTSRLHSGVPSRFSGSGSGTAYSLTISNLEQEDIATYFCQQGYTLPLTFGAGTKLELKR
notes: Chimeric: murine variable regions on human IgG1 heavy and kappa light constant regions; also called chimeric antibody 10B1
